{
  "source": "patent US20200407457A1",
  "about": "(YANTAI OBIOADC BIOMEDICAL TECHNOLOGY, published 2020)",
  "binders": {"B1": {"name": "Zapadcine-1a (antibody, V domains shown)", "VH": "QVQLVQSGSELKKPGASVKVSCKASGYTFTDFSMNWVRQAPGQGLEWMGWINTETGEPTYADDFKGRFVFSLDTSVSTAYLQISSLKAEDTAVYYCARIDYWGQGTTVTVSS", "VL": "DIVMTQSPLSLPVTPGEPASISCRSSQSLVHSNGNTYLHWYLQKPGQSPQLLIYKVSNRFSGVPDRFSGSGSGTDFTLKISRVEAEDVGVYYCFQSTHVPHTFGQGTKLEIKR", "modifications": "MMAD coupled through linker Py-Vc-PAB by thiol (disulfide) bridge coupling, cleavable; positions not given"}, "B2": {"name": "Zaptuzumab (antibody, V domains shown)", "VH": "B1 VH", "VL": "B1 VL"}, "B3": {"name": "Zapadcine-1b (antibody, V domains shown)", "VH": "B1 VH", "VL": "B1 VL", "modifications": "MMAD coupled through linker Mc-Vc-PAB by thiol conventional coupling, cleavable; positions not given"}, "B4": {"name": "Zapadcine-1c (antibody, V domains shown)", "VH": "B1 VH", "VL": "B1 VL", "modifications": "MMAD coupled through linker Py-MAA by thiol bridge coupling, non-cleavable; positions not given"}, "B5": {"name": "Zapadcine-1d (antibody, V domains shown)", "VH": "B1 VH", "VL": "B1 VL", "modifications": "MMAF coupled through linker Mc-Vc-PAB by thiol conventional coupling, cleavable; positions not given"}, "B6": {"name": "Zapadcine-3b (antibody, V domains shown)", "VH": "B1 VH", "VL": "B1 VL", "modifications": "MMAE coupled through linker PY-MAA by thiol bridge coupling, non-cleavable; positions not given"}, "B7": {"name": "Zapadcine-3a (antibody, V domains shown)", "VH": "B1 VH", "VL": "B1 VL", "modifications": "MMAE coupled through linker PY-VC-PAB by thiol bridge coupling, cleavable; positions not given"}, "B8": {"name": "Zapadcine-3d (antibody, V domains shown)", "VH": "B1 VH", "VL": "B1 VL", "modifications": "MMAE coupled through linker MC by thiol conventional coupling, non-cleavable; positions not given"}, "B9": {"name": "Zapadcine-3c (antibody, V domains shown)", "VH": "B1 VH", "VL": "B1 VL", "modifications": "MMAE coupled through linker MC-VC-PAB by thiol conventional coupling, cleavable; positions not given"}, "B10": {"name": "Zapadcine-3e (antibody, V domains shown)", "VH": "B1 VH", "VL": "B1 VL", "modifications": "MMAF coupled through linker MC by thiol conventional coupling, non-cleavable; positions not given"}},
  "data": [
    {"biological_target": "T1, TRAILR2 receptor on the surface of human tumor cells (human, UniProt O14763 56-440)", "assay": "cell-based or functional assay", "units": {"IC50, cytotoxic effect on A2780 cells (CellTiter-Glo, 72 h)": "µg/mL", "IC50, cytotoxic effect on Jurkat E6-1 cells (CellTiter-Glo, 72 h)": "µg/mL", "IC50, cytotoxic effect on Mia PaCa-2 cells (CellTiter-Glo, 72 h)": "µg/mL", "IC50, cytotoxic effect on NCI-H460 cells (CellTiter-Glo, 72 h)": "µg/mL", "IC50, cytotoxic effect on NCI-H1975 cells (CellTiter-Glo, 72 h)": "µg/mL", "IC50, cytotoxic effect on SMMC-7721 cells (CellTiter-Glo, 72 h)": "µg/mL", "eff. (efficiency %), cytotoxic effect on Jurkat E6-1 cells": "%", "eff. (efficiency %), cytotoxic effect on Mia PaCa-2 cells": "%", "eff. (efficiency %), cytotoxic effect on NCI-H460 cells": "%", "eff. (efficiency %), cytotoxic effect on NCI-H1975 cells": "%", "eff. (efficiency %), cytotoxic effect on SMMC-7721 cells": "%"}, "values": [
      {"binder": "B1", "IC50, cytotoxic effect on A2780 cells (CellTiter-Glo, 72 h)": 0.151, "IC50, cytotoxic effect on Jurkat E6-1 cells (CellTiter-Glo, 72 h)": 0.0134, "IC50, cytotoxic effect on Mia PaCa-2 cells (CellTiter-Glo, 72 h)": 0.135, "IC50, cytotoxic effect on NCI-H460 cells (CellTiter-Glo, 72 h)": 0.0865, "IC50, cytotoxic effect on NCI-H1975 cells (CellTiter-Glo, 72 h)": 0.109, "IC50, cytotoxic effect on SMMC-7721 cells (CellTiter-Glo, 72 h)": 0.012, "eff. (efficiency %), cytotoxic effect on Jurkat E6-1 cells": 97.3, "eff. (efficiency %), cytotoxic effect on Mia PaCa-2 cells": 88.4, "eff. (efficiency %), cytotoxic effect on NCI-H460 cells": 96.2, "eff. (efficiency %), cytotoxic effect on NCI-H1975 cells": 84.6, "eff. (efficiency %), cytotoxic effect on SMMC-7721 cells": 99.4},
      {"binder": "B2", "IC50, cytotoxic effect on Jurkat E6-1 cells (CellTiter-Glo, 72 h)": 0.201, "IC50, cytotoxic effect on Mia PaCa-2 cells (CellTiter-Glo, 72 h)": 3.01, "IC50, cytotoxic effect on NCI-H1975 cells (CellTiter-Glo, 72 h)": 0.542, "IC50, cytotoxic effect on SMMC-7721 cells (CellTiter-Glo, 72 h)": 6.12, "eff. (efficiency %), cytotoxic effect on Jurkat E6-1 cells": 90.7, "eff. (efficiency %), cytotoxic effect on Mia PaCa-2 cells": 27.5, "eff. (efficiency %), cytotoxic effect on NCI-H1975 cells": 62.4, "eff. (efficiency %), cytotoxic effect on SMMC-7721 cells": 48},
      {"binder": "B3", "IC50, cytotoxic effect on A2780 cells (CellTiter-Glo, 72 h)": 1.1, "IC50, cytotoxic effect on Jurkat E6-1 cells (CellTiter-Glo, 72 h)": 0.00871, "IC50, cytotoxic effect on Mia PaCa-2 cells (CellTiter-Glo, 72 h)": 0.604, "IC50, cytotoxic effect on NCI-H460 cells (CellTiter-Glo, 72 h)": 0.178, "IC50, cytotoxic effect on NCI-H1975 cells (CellTiter-Glo, 72 h)": 0.411, "IC50, cytotoxic effect on SMMC-7721 cells (CellTiter-Glo, 72 h)": 0.178, "eff. (efficiency %), cytotoxic effect on Jurkat E6-1 cells": 98.6, "eff. (efficiency %), cytotoxic effect on Mia PaCa-2 cells": 86.8, "eff. (efficiency %), cytotoxic effect on NCI-H460 cells": 93.3, "eff. (efficiency %), cytotoxic effect on NCI-H1975 cells": 83.4, "eff. (efficiency %), cytotoxic effect on SMMC-7721 cells": 95.7},
      {"binder": "B4", "IC50, cytotoxic effect on Jurkat E6-1 cells (CellTiter-Glo, 72 h)": 0.0165, "IC50, cytotoxic effect on Mia PaCa-2 cells (CellTiter-Glo, 72 h)": 0.173, "IC50, cytotoxic effect on NCI-H460 cells (CellTiter-Glo, 72 h)": 0.0651, "IC50, cytotoxic effect on NCI-H1975 cells (CellTiter-Glo, 72 h)": 0.312, "IC50, cytotoxic effect on SMMC-7721 cells (CellTiter-Glo, 72 h)": 0.0197, "eff. (efficiency %), cytotoxic effect on Jurkat E6-1 cells": 98.1, "eff. (efficiency %), cytotoxic effect on Mia PaCa-2 cells": 74, "eff. (efficiency %), cytotoxic effect on NCI-H460 cells": 46.4, "eff. (efficiency %), cytotoxic effect on NCI-H1975 cells": 83, "eff. (efficiency %), cytotoxic effect on SMMC-7721 cells": 96.5},
      {"binder": "B5", "IC50, cytotoxic effect on Jurkat E6-1 cells (CellTiter-Glo, 72 h)": 0.108, "IC50, cytotoxic effect on Mia PaCa-2 cells (CellTiter-Glo, 72 h)": 1.02, "IC50, cytotoxic effect on NCI-H460 cells (CellTiter-Glo, 72 h)": 1.03, "IC50, cytotoxic effect on NCI-H1975 cells (CellTiter-Glo, 72 h)": 1.67, "IC50, cytotoxic effect on SMMC-7721 cells (CellTiter-Glo, 72 h)": 0.583, "eff. (efficiency %), cytotoxic effect on Jurkat E6-1 cells": 84.9, "eff. (efficiency %), cytotoxic effect on Mia PaCa-2 cells": 80, "eff. (efficiency %), cytotoxic effect on NCI-H460 cells": 80.6, "eff. (efficiency %), cytotoxic effect on NCI-H1975 cells": 68.8, "eff. (efficiency %), cytotoxic effect on SMMC-7721 cells": 93.7}
    ]},
    {"biological_target": "T1, TRAILR2 receptor on the surface of …", "assay": "cell-based or functional assay", "remark": "another data set of the same source", "units": {"IC50, cytotoxic effect on A172 cells (CellTiter-Glo, 72 h)": "µg/mL", "IC50, cytotoxic effect on Jurkat E6-1 cells (CellTiter-Glo, 72 h)": "µg/mL", "IC50, cytotoxic effect on MSTO-211H cells (CellTiter-Glo, 72 h)": "µg/mL", "IC50, cytotoxic effect on Mia PaCa-2 cells (CellTiter-Glo, 72 h)": "µg/mL", "IC50, cytotoxic effect on Reh cells (CellTiter-Glo, 72 h)": "µg/mL", "eff. (efficiency %), cytotoxic effect on A172 cells": "%", "eff. (efficiency %), cytotoxic effect on Jurkat E6-1 cells": "%", "eff. (efficiency %), cytotoxic effect on MSTO-211H cells": "%", "eff. (efficiency %), cytotoxic effect on Mia PaCa-2 cells": "%", "eff. (efficiency %), cytotoxic effect on Reh cells": "%"}, "values": [
      {"binder": "B6", "IC50, cytotoxic effect on A172 cells (CellTiter-Glo, 72 h)": 0.389, "IC50, cytotoxic effect on Jurkat E6-1 cells (CellTiter-Glo, 72 h)": 0.0717, "IC50, cytotoxic effect on MSTO-211H cells (CellTiter-Glo, 72 h)": 0.255, "IC50, cytotoxic effect on Mia PaCa-2 cells (CellTiter-Glo, 72 h)": 0.415, "IC50, cytotoxic effect on Reh cells (CellTiter-Glo, 72 h)": 0.196, "eff. (efficiency %), cytotoxic effect on A172 cells": 90.8, "eff. (efficiency %), cytotoxic effect on Jurkat E6-1 cells": 87.1, "eff. (efficiency %), cytotoxic effect on MSTO-211H cells": 91, "eff. (efficiency %), cytotoxic effect on Mia PaCa-2 cells": 52.9, "eff. (efficiency %), cytotoxic effect on Reh cells": 75.3},
      {"binder": "B2", "IC50, cytotoxic effect on Jurkat E6-1 cells (CellTiter-Glo, 72 h)": 0.201, "IC50, cytotoxic effect on MSTO-211H cells (CellTiter-Glo, 72 h)": 0.514, "IC50, cytotoxic effect on Mia PaCa-2 cells (CellTiter-Glo, 72 h)": 2.9, "IC50, cytotoxic effect on Reh cells (CellTiter-Glo, 72 h)": 1.59, "eff. (efficiency %), cytotoxic effect on Jurkat E6-1 cells": 90.7, "eff. (efficiency %), cytotoxic effect on MSTO-211H cells": 47.8, "eff. (efficiency %), cytotoxic effect on Mia PaCa-2 cells": 33.2, "eff. (efficiency %), cytotoxic effect on Reh cells": 45},
      {"binder": "B7", "IC50, cytotoxic effect on A172 cells (CellTiter-Glo, 72 h)": 0.225, "IC50, cytotoxic effect on Jurkat E6-1 cells (CellTiter-Glo, 72 h)": 0.0372, "IC50, cytotoxic effect on MSTO-211H cells (CellTiter-Glo, 72 h)": 0.127, "IC50, cytotoxic effect on Mia PaCa-2 cells (CellTiter-Glo, 72 h)": 0.097, "IC50, cytotoxic effect on Reh cells (CellTiter-Glo, 72 h)": 0.0159, "eff. (efficiency %), cytotoxic effect on A172 cells": 98.2, "eff. (efficiency %), cytotoxic effect on Jurkat E6-1 cells": 80.2, "eff. (efficiency %), cytotoxic effect on MSTO-211H cells": 97.5, "eff. (efficiency %), cytotoxic effect on Mia PaCa-2 cells": 88.8, "eff. (efficiency %), cytotoxic effect on Reh cells": 89.8},
      {"binder": "B8", "IC50, cytotoxic effect on A172 cells (CellTiter-Glo, 72 h)": 0.307, "IC50, cytotoxic effect on Jurkat E6-1 cells (CellTiter-Glo, 72 h)": 0.00571, "IC50, cytotoxic effect on MSTO-211H cells (CellTiter-Glo, 72 h)": 0.123, "IC50, cytotoxic effect on Mia PaCa-2 cells (CellTiter-Glo, 72 h)": 0.139, "IC50, cytotoxic effect on Reh cells (CellTiter-Glo, 72 h)": 0.0242, "eff. (efficiency %), cytotoxic effect on A172 cells": 92.5, "eff. (efficiency %), cytotoxic effect on Jurkat E6-1 cells": 98.9, "eff. (efficiency %), cytotoxic effect on MSTO-211H cells": 98.5, "eff. (efficiency %), cytotoxic effect on Mia PaCa-2 cells": 81.7, "eff. (efficiency %), cytotoxic effect on Reh cells": 98.8},
      {"binder": "B9", "IC50, cytotoxic effect on A172 cells (CellTiter-Glo, 72 h)": 0.703, "IC50, cytotoxic effect on Jurkat E6-1 cells (CellTiter-Glo, 72 h)": 0.0896, "IC50, cytotoxic effect on MSTO-211H cells (CellTiter-Glo, 72 h)": 0.22, "IC50, cytotoxic effect on Mia PaCa-2 cells (CellTiter-Glo, 72 h)": 0.508, "IC50, cytotoxic effect on Reh cells (CellTiter-Glo, 72 h)": 0.889, "eff. (efficiency %), cytotoxic effect on A172 cells": 93.2, "eff. (efficiency %), cytotoxic effect on Jurkat E6-1 cells": 82, "eff. (efficiency %), cytotoxic effect on MSTO-211H cells": 98.2, "eff. (efficiency %), cytotoxic effect on Mia PaCa-2 cells": 86.3, "eff. (efficiency %), cytotoxic effect on Reh cells": 98.6},
      {"binder": "B10", "IC50, cytotoxic effect on Jurkat E6-1 cells (CellTiter-Glo, 72 h)": 0.0981, "IC50, cytotoxic effect on MSTO-211H cells (CellTiter-Glo, 72 h)": 0.177, "IC50, cytotoxic effect on Mia PaCa-2 cells (CellTiter-Glo, 72 h)": 0.951, "IC50, cytotoxic effect on Reh cells (CellTiter-Glo, 72 h)": 0.163, "eff. (efficiency %), cytotoxic effect on Jurkat E6-1 cells": 90.7, "eff. (efficiency %), cytotoxic effect on MSTO-211H cells": 99.1, "eff. (efficiency %), cytotoxic effect on Mia PaCa-2 cells": 53, "eff. (efficiency %), cytotoxic effect on Reh cells": 77.4}
    ]}
  ]
}
